Columns and labels:
[1] = biological target: Native NGAL purchased from Diagnostics Development (Uppsala, Sweden), non-reduced (UniProt P80188); assay: … sandwich CMIA, capture HYB 211-01, detection acridinium-HYB 211-02; NGAL 50 ng/mL
[2] = biological target: Wild-type recombinant human NGAL dimer calibrators treated with DTT (human) (UniProt P80188); assay: as above
[3] = biological target: Wild-type recombinant human NGAL dimer expressed in CHO cells (human) (UniProt P80188); assay: as above
[4] = biological target: Wild-type recombinant human NGAL monomer expressed in CHO cells (human) (UniProt P80188); assay: as above
[5] = biological target: Native NGAL purchased from Diagnostics Development (Uppsala, Sweden), non-reduced (UniProt P80188); assay: … sandwich CMIA, capture HYB 211-01, detection acridinium-HYB 211-02; non-reduced control sample
[6] = biological target: Wild-type recombinant human NGAL dimer calibrators treated with DTT (human) (UniProt P80188); assay: … sandwich CMIA, capture HYB 211-01, detection acridinium-HYB 211-02; calibrator B, NGAL 5 ng/mL
[7] = biological target: Wild-type recombinant human NGAL dimer expressed in CHO cells (human) (UniProt P80188); assay: as above
[8] = biological target: Wild-type recombinant human NGAL monomer expressed in CHO cells (human) (UniProt P80188); assay: as above
[9] = biological target: Wild-type recombinant human NGAL dimer calibrators treated with DTT (human) (UniProt P80188); assay: … sandwich CMIA, capture HYB 211-01, detection acridinium-HYB 211-02; curve fit with monomer calibrators; target 50 ng/mL
[10] = biological target: Wild-type recombinant human NGAL dimer expressed in CHO cells (human) (UniProt P80188); assay: as above
[11] = biological target: Wild-type recombinant human NGAL monomer expressed in CHO cells (human) (UniProt P80188); assay: as above
[12] = biological target: Wild-type recombinant human NGAL dimer calibrators treated with DTT (human) (UniProt P80188); assay: … sandwich CMIA, capture HYB 211-01, detection acridinium-HYB 211-02; curve fit with monomer calibrators; target 1000 ng/mL
[13] = biological target: Wild-type recombinant human NGAL dimer expressed in CHO cells (human) (UniProt P80188); assay: as above
[14] = biological target: Wild-type recombinant human NGAL monomer expressed in CHO cells (human) (UniProt P80188); assay: as above
[15] = biological target: Wild-type recombinant human NGAL dimer calibrators treated with DTT (human) (UniProt P80188); assay: … sandwich CMIA, capture HYB 211-01, detection acridinium-HYB 211-02; DTT-treated against untreated dimer calibrator; target 5 ng/mL
[16] = biological target: Wild-type recombinant human NGAL dimer calibrators treated with DTT (human) (UniProt P80188); assay: … sandwich CMIA, capture HYB 211-01, detection acridinium-HYB 211-02; DTT-treated against untreated dimer calibrator; target 250 ng/mL
[17] = biological target: Wild-type recombinant human NGAL dimer expressed in CHO cells (human) (UniProt P80188); assay: … sandwich CMIA, capture 1-2322-455, detection acridinium-1-903-430; NGAL 600 ng/mL
[18] = biological target: Wild-type recombinant human NGAL monomer expressed in CHO cells (human) (UniProt P80188); assay: as above
[19] = biological target: Wild-type recombinant human NGAL monomer expressed in CHO cells (human) (UniProt P80188); assay: … sandwich CMIA, capture 1-2322-455, detection acridinium-1-903-430; NGAL 1000 ng/mL
[20] = biological target: Wild-type recombinant human NGAL dimer calibrators with TCEP in the reaction mixture (human) (UniProt P80188); assay: … sandwich CMIA, capture 1-2322-455, detection acridinium-1-903-430; TCEP in reaction; NGAL 250 ng/mL
[21] = biological target: Wild-type recombinant human NGAL dimer calibrators with TCEP in the reaction mixture (human) (UniProt P80188); assay: … sandwich CMIA, capture 1-2322-455, detection acridinium-1-903-430; TCEP in reaction; NGAL 1000 ng/mL
[22] = biological target: Wild-type recombinant human NGAL monomer expressed in CHO cells (human) (UniProt P80188); assay: … sandwich CMIA, capture 1-2322-455, detection acridinium-1-903-430; monomer calibrator plus TCEP; NGAL 250 ng/mL
[23] = biological target: Wild-type recombinant human NGAL monomer expressed in CHO cells (human) (UniProt P80188); assay: … sandwich CMIA, capture 1-2322-455, detection acridinium-1-903-430; monomer calibrator plus TCEP; NGAL 600 ng/mL
[24] = biological target: Wild-type recombinant human NGAL dimer expressed in CHO cells (human) (UniProt P80188); assay: … sandwich CMIA, capture 1-2322-455, detection acridinium-1-903-430; NGAL Dimer High, 1500 ng/mL dimer calibrator
[25] = biological target: Wild-type recombinant human NGAL monomer expressed in CHO cells (human) (UniProt P80188); assay: … sandwich CMIA, capture 1-2322-455, detection acridinium-1-903-430; monomer calibrator plus TCEP; curve fit with monomer calibrators; target 250 ng/mL

**Q.** With “anti-NGAL antibody HYB 211-01 from AntibodyShop A/S, Gentofte, Denmark” as the molecule, how does the RLUs [1] read?
**A.** 151000 RLUs

**Q.** And the RLUs [2]?
**A.** 101000 RLUs

**Q.** And the RLUs [3]?
**A.** 31500 RLUs

**Q.** And the RLUs [4]?
**A.** 101000 RLUs

**Q.** What about the NGAL concentration detected [5] of the same molecule?
**A.** 13.7 ng/mL

**Q.** What about the RLUs [6] of the same molecule?
**A.** 11400 RLUs

**Q.** And the RLUs [7]?
**A.** 4050 RLUs

**Q.** And the RLUs [8]?
**A.** 12000 RLUs

**Q.** What about the Curve Fit Results [9] of the same molecule?
**A.** 49 ng/mL

**Q.** And the Curve Fit Results [10]?
**A.** 14.1 ng/mL

**Q.** And the Curve Fit Results [11]?
**A.** 49.5 ng/mL

**Q.** What about the Curve Fit Results [12] of the same molecule?
**A.** 924 ng/mL

**Q.** What about the Curve Fit Results [13] of the same molecule?
**A.** 245 ng/mL

**Q.** And the Curve Fit Results [14]?
**A.** 1000 ng/mL

**Q.** And the % Increase due to DTT [15]?
**A.** 229%

**Q.** And the % Increase due to DTT [16]?
**A.** 229%

B1: antibody produced by murine hybridoma cell line 1-2322-455 having ATCC Accession No. PTA-8024 (antibody, V domains shown)
VH: EVQLVESGGGLVQPGGSLKLSCAASGFTFNNYYMSWVRQTPERRLEWVAYISSSGGSTYYSDSVRGRFTISRDTARNTLYLQMTSLKSEDTAMYYCARHFGDYSYFDYWGQGTTLTVSS
VL: DIQMTQSPASLSASVGETVTITCRASENFYSYLAWYQQKQGKSPQLLVYNAKTLAEGVPSRFSGSGSGTQFSLKINSLQPEDFGTYYCQHHYDIPLTFGAGTKLELKR
**Q.** Which RLUs [17] does the source give for B1 here?
**A.** 680000 RLUs

**Q.** And the RLUs [18]?
**A.** 1.51e+06 RLUs

**Q.** And the RLUs [19]?
**A.** 1.93e+06 RLUs

**Q.** What about the RLUs [20] of the same molecule?
**A.** 535000 RLUs

**Q.** And the RLUs [21]?
**A.** 1.37e+06 RLUs

**Q.** And the RLUs [22]?
**A.** 928000 RLUs

**Q.** What about the RLUs [23] of the same molecule?
**A.** 1.53e+06 RLUs

**Q.** What about the NGAL concentration detected [24] of the same molecule?
**A.** 309 ng/mL

**Q.** What about the Curve Fit Results [25] of the same molecule?
**A.** 266 ng/mL
